From patent publication US20220002426A1 (BIOINVENT INTERNATIONAL, published 2022)

Assays:
[1] = target: T1, wild type, full length murine TNFR2 (on cells) (mouse, UniProt P25119 23-474); assay: FACS, activated mouse CD4+ T cells
T1 construct: whole, on cells; also called mTNFR2; mouse TNFR2
T1 sequence (looked up): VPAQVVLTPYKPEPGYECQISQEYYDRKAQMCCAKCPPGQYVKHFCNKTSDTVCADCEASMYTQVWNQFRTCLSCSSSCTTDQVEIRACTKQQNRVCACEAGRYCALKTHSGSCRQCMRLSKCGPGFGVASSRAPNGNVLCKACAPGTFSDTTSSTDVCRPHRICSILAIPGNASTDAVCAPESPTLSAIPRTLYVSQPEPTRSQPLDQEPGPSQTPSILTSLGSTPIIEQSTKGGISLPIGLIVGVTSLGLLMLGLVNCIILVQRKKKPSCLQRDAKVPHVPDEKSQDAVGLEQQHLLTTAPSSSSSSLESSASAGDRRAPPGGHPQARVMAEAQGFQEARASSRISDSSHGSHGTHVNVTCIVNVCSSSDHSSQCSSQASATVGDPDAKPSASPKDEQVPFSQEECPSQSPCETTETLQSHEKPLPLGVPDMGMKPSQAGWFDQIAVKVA

[2] = target: T2, recombinant mouse TNFR2-Fc protein (Sino Biological) (mouse, UniProt P25119 23-258, limits assumed); assay: ELISA, coated TNFR2-Fc
T2 construct: bought; also called mTNFR2 protein; mTNFR2; not shown: Fc part of the bought fusion protein; not described
T2 sequence (looked up): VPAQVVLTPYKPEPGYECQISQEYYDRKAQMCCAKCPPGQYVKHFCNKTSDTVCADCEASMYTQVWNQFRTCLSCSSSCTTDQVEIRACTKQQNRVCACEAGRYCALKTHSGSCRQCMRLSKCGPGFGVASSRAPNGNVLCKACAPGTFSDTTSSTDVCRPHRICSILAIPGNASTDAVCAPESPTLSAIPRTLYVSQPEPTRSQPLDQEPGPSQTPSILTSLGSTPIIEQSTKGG
Experimental: 96-well plates (Lumitrac 600 LIA plate, Greiner) were coated overnight at 4° C. with recombinant human or mouse TNFR2-Fc protein (Sino Biological) at 1 pmol/well. After washing, titrated doses of anti-TNFR2 mAbs from 20 μg/ml to 0.1 ng/ml (133 nM to 1 pM) were allowed to bind for 1 hour. Plates were then washed again, and bound antibodies were detected with an anti-human-F(ab)-HRP secondary antibody (Jackson ImmunoResearch) diluted in 50 ng/ml. Super Signal ELISA Pico (Thermo Scientific) was used as substrate and the plates were analyzed using Tecan Ultra Microplate reader.

[3] = target: T3, mTNFRII (Sinobioologicals Cat No. 50128 M08H) (mouse, UniProt P25119 23-258, limits assumed); assay: blocking ELISA, coated mTNFRII, competitor mTNF-α 2 nM
T3 construct: bought
T3 sequence (looked up): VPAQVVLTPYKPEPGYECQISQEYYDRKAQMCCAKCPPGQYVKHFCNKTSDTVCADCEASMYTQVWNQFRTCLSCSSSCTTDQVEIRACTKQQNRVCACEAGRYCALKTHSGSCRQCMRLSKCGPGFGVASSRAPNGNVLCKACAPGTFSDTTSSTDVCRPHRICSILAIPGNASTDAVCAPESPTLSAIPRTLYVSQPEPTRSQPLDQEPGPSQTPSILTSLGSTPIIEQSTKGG
Experimental: 96-well plates were coated with hTNFRII (Sinobioologicals Cat nr10414-H08H) or mTNFRII (Sinobioologicals Cat No. 50128 M08H) at 2.5 pmol/well in ELISA coating buffer (0.1 M sodium carbonate pH 9.5) and incubated overnight at 4° C. After washing in ELISA wash buffer (PBS with 0.05% Tween20), the plates were incubated under slow agitation for 1 h in room temperature with n-CoDeR® mAbs at 10 μg/ml (one-dose ELISA) or 33 nM and subsequent 1:2 dilutions (titration ELISA) in block buffer containing 0.45% fish gelatin. […] Thereafter, plates were washed. For the human ELISAs, Streptavidin-HRP (Jackson Cat No. 016-030-084) diluted 1:2000 in block buffer were added and again incubated for 1 h at room temperature followed by washes first in ELISA buffer and then in Tris buffer (pH 9.8). The substrate (Super Signal ELISA Pico from Thermo Scientific Cat. No. 37069) were thereafter diluted according to the manufacturers instruction, added to the wells and incubated in darkness for 10 min before reading in a Tecan Ultra. […] After washing, anti-Rabbit-HRP diluted 1:10 000 in block buffer was added and again incubated for 1 h at room temperature. Substrate adding and reading were performed as above.

B1: 003-F10 (antibody, V domains shown)
VH: EVQLLESGGGLVQPGGSLRLSCAASGFTFSDAWMTWVRQAPGKGLEWVSDLSDSGGSTYYADSVKGRFTISRDNSKNTLYLQMNSLRAEDTAVYYCGRLAAGGPVDYWGQGTLVTVSS
VL: QSVLTQPPSASGTPGQRVTISCTGSSSNIGAGYDVHWYQQLPGTAPKLLIYSNNQRPSGVPDRFSGSKSGTSASLAISGLRSEDEADYYCSVWDDSLNSWVFGGGTKLTVLG
notes: also called 3-F10 (mouse)
EC50 [1]: 0.072 nM
EC50 [2]: 0.97 nM
EC50 [3]: 1.9 nM
